Experimental findings from the RNAGym collection of RNA variant scans (doi:10.1101/gr.219683.116) are described below.

The chains are these.
B1: mRNA-splicing (parent)
chain: AGUUGCUGCUGGGAGCUCCAGCACAGUGAAAUGGACAGAAGGGCAGAGCAA

Variants of B1 are the subject of this data set. Briefly: exon inclusion enrichment index; higher = more inclusion; WT1 exon 5 minigene, HEK293.
As to G41U G42C, the “exon inclusion enrichment index” value is 0.49. Next, G5C C6A G8U U10A: 0.0451; G5A C6U U7A G8U C9A C16U U17A: 0.0252.

Regarding U7G C9A, the “exon inclusion enrichment index” value turned out to be 1.94. With G5A U7C G8A U10C A20U G21A the figure was 1.36. As for G5A C6U U7A G8U C9A A47C G48C, the “exon inclusion enrichment index” value is 0.0967. As to G5A U7C G8A U10C A37U G38A, the “exon inclusion enrichment index” value was 0.876.

On to G5U G8U C9U A29C A30G, for which the “exon inclusion enrichment index” value stood at 0.414. With C6A U7A C9A U10A G42A G43A the figure was 2.97; with A14C G15U, 0.0261; with G5A C6U U7A G8U C9A A23C C24U, 0.00662. With G21C C22U the figure was 2.41; with G5A U7C G8A U10C C18G C19U, 0.528.

For the variant G5A C6U U7A G8U C9A C18U, the “exon inclusion enrichment index” value worked out at 0.0307. With C6A U7A C9A U10A G46A A47C, the “exon inclusion enrichment index” value came out at 1.64. With G5C U7A G8C C9U U10C the figure was 0.259; with G5A C6G U7G C9A A31C U32G, 0.00133; with G5C C6A U7C G8A U10C G11A, 1.06. With G2A U3C G5U G8U C9U the figure was 0.198; with G5U G8U C9U U32A, 0.11.

In the case of G5A C6U U7G G8A U10C, the “exon inclusion enrichment index” value is 1.97.

Regarding C6A U7C C9A U10C G34A A35G, the “exon inclusion enrichment index” value was 2.05.

Take G5C C6U U7A C9A U10A: the “exon inclusion enrichment index” value stood at 0.0605. Turning to G5C C6G U7C U10C G41C G42C, the “exon inclusion enrichment index” value worked out at 4.35. Next, G5C C6A U7C G8A U10A G38A A39C: 0.107; G5A C6G U7C C9A: 0.117. Next, G5A C6U U7A G8U C9A A20C G21C: 0.0139; U3A U4A G5C C6A U7C G8A U10A: 0.0877; G5U G8U C9U A14C G15C: 0.0167. On to U4A G5U C6A U7C C9A U10C, for which the “exon inclusion enrichment index” value is 2.45.

With U3A U4A C6A U7A C9A U10A, the “exon inclusion enrichment index” value is 0.441. Regarding C6A U7A C9A U10A C18U C19U, the “exon inclusion enrichment index” value worked out at 0.00807. Regarding C6A U7A C9A U10A G21C, the “exon inclusion enrichment index” value was found to be 0.86. Turning to G5C C6U G8C C9U U10C G38C A39U, the “exon inclusion enrichment index” value was determined as 0.141. With C6A U7A C9A U10A C36A A37U the figure was 0.229; with G5C C6A U7G C9A, 0.352; with G5C C6A U7C G8A U10A U17C, 0.0444.

Take G5A C6U U7A G8A: the “exon inclusion enrichment index” value is 0.217. With G5A C6G U7G C9A G38A the figure was 0.000584.

With G5C C6U G8C C9U U10C C22U A23C, the “exon inclusion enrichment index” value was 1.22. For G5C C6U G8C C9U U10C C22U A23G, the “exon inclusion enrichment index” value is 2.04. With C6A U7A C9A U10A G41U G42U the figure was 0.717; with G5A C6U U7A G8U C9A A20U G21C, 0.0614; with G2C U3G C6A U7C C9A U10C, 3.19. Turning to A29C A30G, the “exon inclusion enrichment index” value is 0.677.

For the variant C6A G8C C9A U10C, the “exon inclusion enrichment index” value stood at 1.49. Next, G5U G8U C9U C19A: 0.0498; G5U G8U C9U G34A: 0.0562. Next, C6A U7A C9A U10A A30G A31U: 0.133; C6A U7C C9A U10C G41A G42A: 2.59; G5C C6G G8C C9U U10C: 3.14. As to G5U G8U C9U A20U G21U, the “exon inclusion enrichment index” value was determined as 0.0618. With C6A U7A C9A U10A G41C G42A the figure was 1; with G2C U3G G5A C6U U7A G8U C9A, 0.0859; with C6A U7C C9A U10C A45C G46C, 2.21. Take G5C C6G U7C G8U C9G U10C: the “exon inclusion enrichment index” value stood at 2.53. With C6A U7C C9U U10G the figure was 0.298; with G5A U7C G8A U10C G21C C22G, 3.61. With G5C G8C C9U U10C, the “exon inclusion enrichment index” value worked out at 0.273. Consider G5C C6G U7C U10C G43A C44U, for which the “exon inclusion enrichment index” value came to 3.64. With G5A U7C G8A U10C G34A A35C the figure was 1.83; with C6A U7C C9A U10C A23U C24A, 1.89; with G5C C6A U7C G8A U10A G13A A14C, 0.899. In the case of C6A U7C C9A U10C G15U C16A, the “exon inclusion enrichment index” value was 2.78. Next, G5C C6A U7G G8U U10A: 0.00932. Next, G5A U7C G8A U10C G34U: 0.607. Next, G5C C6G U7C U10C A35G: 1.93; A23U C24A: 0.217; G5C C6A U7C G8A U10A C16G: 0.043.

As to G5C C6U G8C C9U U10C A39G, the “exon inclusion enrichment index” value was found to be 0.96. Next, G5C C6A U7C G8A U10A G42C G43A: 0.455; C6A U7C C9A U10C A20C: 3.02. With G2A U3G C6A U7A C9A U10A the figure was 0.935; with U3A U4G G5C C6G U7C U10C, 1.31. With G5C C6A U7C G8A U10A A40U G41U the figure was 0.0362; with G21A C22G, 2.36; with G5A U7C G8A U10C G42C G43C, 3.5. With C36U A37U, the “exon inclusion enrichment index” value is 0.0501. With G5U G8U C9U A14C the figure was 0.108; with G5U U7G C9A, 2.09. With G5C C6U U7C G8A U10A the figure was 0.137; with G5U G8U C9U A31C U32A, 0.077; with G5U G8U C9U G15U, 0.107. Next, G2C U3C G5A C6G U7G C9A: 0.0355; G5A C6G U7G C9A C19U A20G: 0.00155. Take G5A C6G U7G C9A C16A U17G: the “exon inclusion enrichment index” value was 0.00129. As for G5A C6G U7G C9A C16A U17A, the “exon inclusion enrichment index” value is 0.00207. Take G5U G8U C9U G43A C44U: the “exon inclusion enrichment index” value came out at 0.177. Next, G5C C6A U7C G8A U10A G33A G34U: 0.00646; G5C C6U G8C C9U U10C A30U A31C: 1.95; C6A U7C C9A U10C U17C C18U: 3.39. On to G5A C6U U7A G8U C9A A37U G38C, for which the “exon inclusion enrichment index” value was found to be 0.0673. Next, G5A C6U U7A G8U C9A A37U G38U: 0.0205; G5A C6G U7G C9A A23U: 0.0012. With G5A U10C the figure was 2.01. With G5A C6G U7G C9A C36A A37U the figure was 0.00282; with G5A C6G U7G C9A C44A A45G, 0.0102; with G5A C6U U7A G8U C9A A25U G26A, 0.0732. Regarding G5A C6U U7A G8U C9A A25C G26U, the “exon inclusion enrichment index” value amounted to 0.133. In the case of G5C C6U G8C C9U U10C U27C G28U, the “exon inclusion enrichment index” value was determined as 1.2. On to C6A U7C C9A U10C G21U C22U, for which the “exon inclusion enrichment index” value was 1.78. For the variant G5C C6U G8C C9U U10C G43U C44U, the “exon inclusion enrichment index” value worked out at 0.567. On to C6A U7A C9A U10A A47U G48C, for which the “exon inclusion enrichment index” value came to 0.497. With C6A U7C C9A U10C G41U G42A, the “exon inclusion enrichment index” value was 1.6. With G5A U7C G8A U10C G38U A39G the figure was 1.15. As to U3A U4A, the “exon inclusion enrichment index” value turned out to be 0.0787.

For the variant G5U G8U C9U A30C A31G, the “exon inclusion enrichment index” value turned out to be 0.406. Next, C24U A25G: 0.487.

In the case of G5A C6G U7G G8U C9U, the “exon inclusion enrichment index” value stood at 0.00149.

C6A U7C C9A U10C G28A A29C: the “exon inclusion enrichment index” value was 2.55. Take U7G G8A: the “exon inclusion enrichment index” value amounted to 2.02. Next, G5C C6U G8C C9U U10C U17A C18U: 1.58.

Take G5C C6G U7C U10C U27A G28C: the “exon inclusion enrichment index” value was 3.86. Consider G5A U7C G8A U10C G11A G12A, for which the “exon inclusion enrichment index” value stood at 0.934. As for G2U U3A G5A U7C G8A U10C, the “exon inclusion enrichment index” value came out at 3.36. With G5C C6G U7C U10C A23C C24A, the “exon inclusion enrichment index” value stood at 3.49. Next, C18A C19G: 0.352. Regarding G5U G8U C9U U27G G28A, the “exon inclusion enrichment index” value came to 0.148. As for C6A U7A C9A U10A G42A, the “exon inclusion enrichment index” value is 1.81. As to C36A, the “exon inclusion enrichment index” value is 0.0939. Next, C6A U7A C9A U10A G43A C44G: 2.4; G5U G8U C9U G41C G42C: 0.753; G5C C6U G8C C9U U10C G28A A29G: 0.736. With G5A C6U U7A G8U C9G U10G the figure was 0.0235. As to G5A C6U U7A G8U C9G U10C, the “exon inclusion enrichment index” value is 0.339. Next, G5A C6G U7G C9A G46A A47C: 0.00647. With C6A U7A C9A U10A C44U the figure was 0.122; with G5C C6A U7C G8A U10A G15A, 0.0449. For the variant G5U C6U U7A G8U C9A, the “exon inclusion enrichment index” value was determined as 0.0673. Next, G5U G8U C9U A29U A30C: 0.0859; G5C C6A U7C G8A U10A A40C G41C: 0.71; U3A U4G G5A C6U U7A G8U C9A: 0.0692. As for G5U G8U C9U A47G G48U, the “exon inclusion enrichment index” value was 0.00268.

For the variant G5U G8U C9U G42U, the “exon inclusion enrichment index” value is 0.227. Regarding G5A C6U U7A G8U C9A A29U A30G, the “exon inclusion enrichment index” value is 0.0618.

Regarding G5A C6U U7A G8U C9A A29U A30C, the “exon inclusion enrichment index” value came to 0.0463.

With G5C C6A U7C G8A U10G, the “exon inclusion enrichment index” value was 0.737. As for G5C C6A U7C G8A U10A, the “exon inclusion enrichment index” value came out at 0.12.

On to G5U C6U U7C G8U C9U, for which the “exon inclusion enrichment index” value is 0.154. With G2C U3A C6A U7C C9A U10C the figure was 2.73; with G5C C6U U7G G8U C9U U10C, 1.07; with G5A C6G U7G C9A C22G A23U, 0.000928. For the variant G5C C6U G8C C9U U10C A37U G38U, the “exon inclusion enrichment index” value is 0.446. Turning to C6A U7A C9A U10A A30U, the “exon inclusion enrichment index” value turned out to be 0.433. Next, G5A C6A G8U C9A: 0.0357; G5A C6U U7A G8U C9A C24G A25U: 0.0695; G8A C9A: 0.383. Regarding G5U G8U C9U G42A G43C, the “exon inclusion enrichment index” value was 1.72.

G5C C6U G8C C9U U10C G11U G12U: the “exon inclusion enrichment index” value was determined as 0.188. Consider G5C C6U U7C G8U C9U U10C, for which the “exon inclusion enrichment index” value was 1.35. Next, G5A U7C G8A U10C G11C: 1.96. With G5C C6G U7C U10C G34A A35U the figure was 1.96; with G5C C6U G8C C9U U10C A35C C36U, 0.258; with G5A C6U U7A G8U C9A G33U G34C, 0.00527.

For C22G A23U, the “exon inclusion enrichment index” value came out at 0.496. Next, G5C C6A U7C G8A C9U U10G: 0.525; C6G G8U C9U: 0.101. With G5A C6G U7G C9A C16G U17G, the “exon inclusion enrichment index” value turned out to be 0.0104. For G5C C6G U7C U10C G28C A29G, the “exon inclusion enrichment index” value turned out to be 4.75.

As for C6A U7C C9A U10C C19U A20G, the “exon inclusion enrichment index” value came out at 1.79. With G5A C6G U7A G8A U10C the figure was 0.237. With C9U U10G the figure was 0.493. Next, C9U U10A: 0.0452; G5A U7C G8A U10C G42A G43U: 4.5. G5C C6U G8C C9U U10C G33U G34C: the “exon inclusion enrichment index” value worked out at 0.547. With G5C C6U G8C C9U U10C C24A A25G the figure was 2.06; with G5A C6U U7A G8U C9A G12U G13U, 0.00049.
